# In paper PMC11720163, “Position-Dependent Effects of AP Sites Within an hTERT Promoter G-Quadruplex Scaffold on Quadruplex Stability and Repair Activity of the APE1 Enzyme”:
# Tests used:
# [1] = target: APE1 (human AP endonuclease 1), His-tagged (Homo sapiens) (UniProt P27695); assay: BLI; details: 1 mM Ca2+, N = F, BLI: 20 mM Tris-HCl pH 7.5, 100 mM KCl, 1 mM CaCl2, DNA 10-100 nM, temperature not stated, DNA annealed with at least 20 mM KCl
# [2] = target: APE1 (human AP endonuclease 1), His-tagged (Homo sapiens, UniProt P27695 1-318); assay: BLI; 1 mM Ca2+; BLI: 20 mM Tris-HCl pH 7.5, 100 mM KCl, 1 mM CaCl2; DNA 10-100 nM; temperature not stated; DNA annealed with at least 20 mM KCl; details: protein: recombinant; label: 3'-TAMRA; three stacked intramolecular parallel G4s
# APE1 (human AP endonuclease 1), His-tagged, sequence (P27695 whole entry): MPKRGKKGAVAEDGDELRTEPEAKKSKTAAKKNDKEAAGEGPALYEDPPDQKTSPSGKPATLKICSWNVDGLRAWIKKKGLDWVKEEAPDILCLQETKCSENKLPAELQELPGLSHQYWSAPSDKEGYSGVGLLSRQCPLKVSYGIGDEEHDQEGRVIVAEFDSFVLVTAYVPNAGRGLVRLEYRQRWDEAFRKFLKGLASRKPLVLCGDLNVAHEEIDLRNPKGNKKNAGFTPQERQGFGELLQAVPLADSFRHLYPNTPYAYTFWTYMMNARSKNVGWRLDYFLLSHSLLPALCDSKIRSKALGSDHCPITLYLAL
# APE1 (human AP endonuclease 1), His-tagged (Homo sapiens), sequence (P27695 whole entry): as above
Molecule,Kd ([1]; stable AP site analog),further results
ACCTGGATGCCTATAGGGCGAATTGGGTACCGCTGAATTGCACTGGACTNGATCCTCGATGATCCTAAGCTAAGCTTCAGCTCCAGCCTAAGCCTG [96-RF],,Kd fold-increase relative to G4 substrates (fold higher Kd than G4 substrates) ([1]; stable AP site analog): 10
GCCGCGGAAAGGAAGGGGAGGGGCTGGGAGGGCCCGGAGGGGGCTGGGCCGGGGACCCGGNAGGGGTCGGGACGGGGCGGGGTCCGCGCGGAGGAG [96-G250F],3 nM,
GCCGCGGAAAGGAAGGGGAGGGGCTGGGAGGGCCCGGAGGGGGCTGGGCCGGNGACCCGGGAGGGGTCGGGACGGGGCGGGGTCCGCGCGGAGGAG [96-G243F],3 nM,
GCCGCGGAAAGGAAGGGGAGGGGCTGGGAGGGCCCGGAGGGGGCTGGGCCGNGGACCCGGGAGGGGTCGGGACGGGGCGGGGTCCGCGCGGAGGAG [96-G242F],3 nM,
"GCCGCGGAAAGGAAGGGGAGGGGCTGGGAGGGCCCGGAGGGGGCTGGGCCGNNGACCCGGGAGGGGTCGGGACGGGGCGGGGTCCGCGCGGAGGAG [96-G242,243F]",,Kd ([1]; stable AP site analog (two)): 3 nM
GCCGCGGAAAGGAAGGGGAGGGGCTGGGAGGGCCCGGANGGGGCTGGGCCGGGGACCCGGGAGGGGTCGGGACGGGGCGGGGTCCGCGCGGAGGAG [96-G228F],3 nM,
96-G4 (structured_DNA) DNA: GCCGCGGAAAGGAAGGGGAGGGGCTGGGAGGGCCCGGAGGGGGCTGGGCCGGGGACCCGGGAGGGGTCGGGACGGGGCGGGGTCCGCGCGGAGGAG,,Kd [2]: 4.2 ± 1.4 nM
